Reference: the RNAGym collection of RNA variant scans (doi:10.1073/pnas.2313332121)
This sample holds only a part of the variants without activity.

B1: TPR 5TU (parent)
chain: GGAUCUUCUCGAUCUAACAAAAAAGACAAAUCUGCCACAAAGCUUGAGAGCAUCUUCGGAUGCAGAGGCGGCAGCCUUCGGUGGCGCGAUAGCGCCAACGUUCUCAACUAUGACACGCAAAACGCGUGCUCCGUUGAAUGGAGUUUAUCAUG

Variants of: B1
Assay: polymerase ribozyme fitness, log enrichment relative to wild type (log ratio); higher = more active; in vitro selection for triplet polymerase activity
How it was run: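 Mutant libraries for each subunit of a heterodimeric triplet polymerase ribozyme were made by PCR and then transcribed. Each library underwent one round of in vitro selection in triplicate: annealing with a biotinylated primer, the partner subunit and triplets, frozen incubation at −7 °C, gel excision of extended constructs, streptavidin-bead capture and RT-PCR. Input and output libraries were Illumina-sequenced, and only genotypes with ≥10 input reads and ≥1 read per output were kept. Fitness is the logarithm, base 2, of genotype enrichment over wild-type enrichment, computed from inverse-variance-weighted replicate averages.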

| Variant | polymerase ribozyme fitness (log ratio) |
| --- | --- |
| GGAUCUUCUCGAUCUAACAAAAAAGACAAAUCUGCCACAAAGCUUGAGAGCAUCUUCGGAUGCAGAGGCGGCAGCCUUCGGUGGCGUGAUAGCGCCAACGUUCUCAACUAUGACACGCAAAAUGCGUGCUCCGUUGAAUGGAGUUUAUGAUG [C87U C123U C149G] | -2.65 |
| GGAUCUUCUCGAUCUAACAAAAAAGACAAAUCUGCCACAAAGCUUGAGAGCAUCUUCGGAUGCAGAGGCGGCAGCCUUCGGUGGCGUGAUAGGGCCAACGUUCUCAACUAUGACACGCAAUACGCGUGCUCAGUUGAAUGGAGUUUAUCAUG [C87U C93G A121U C132A] | ≤ -4.2 |
| GGAUCUUCUCGAUCUAACAAAAAAGACAAAUCUGCCACAAAGCUUGAGAGCAUCUUCGGAUGCAGAGGCGGCAGCCUUCGGUGGCGUGAUAGCGCGAACGUUCUCAACUAUGUCACGCAAAACGCGUGCUCCGUUGAAUGGAGUUUAUCAUG [C87U C96G A113U] | -2.85 |
| GGAUCUUCUCGAUCUAACAAAAAAGACAAAUCUGCCACAAAGCUUGAGAGCAUCUUCGGAUGCAGAGGCGGCAGCCUUCGGUGGCGUGAUAGCGCCAACGUUCUCAACUAUGACACGUAAAACGCGUGCUCCGUUGAAUGGACUUUAUCAUG [C87U C118U G143C] | -2.54 |
| GGAUCUUCUCGAUCUAACAAAAAAGACAAAUCUGCCACAAAGCUUGAGAGCAUCUUCGGAUGCAGAGGCGGCAGCCUUCGGUGGCGUGAUAGCGCCAACGUUCUCAACUAUGACACGCAAAACGAGUGCUUCGUUGAAUGGAGUUUAUCAUG [C87U C125A C131U] | 0.186 |
| GGAUCUUCUCGAUCUAACAAAAAAGACAAAUCUGCCACAAAGCUUGAGAGCAUCUUCGGAUGCAGAGGCGGCAGCCUUCGGUGGCGUGAUAGCGCCAACGUUCUGAACUAUGACACGCAAUUCGCGUGCUCCGUUGAAUGGAGUUUAUCAUG [C87U C105G A121U A122U] | -1.19 |
| GGAUCUUCUCGAUCUAACAAAAAAGACAAAUCUGCCACAAAGCUUGAGAGCAUCUUCGGAUGCAGAGGCGGCAGCCUUCGGUGGCGUGAUAGCGCCAACGUUGUCAACUAUGACACGCAAAACGCGUGCUCCGUUGAAUGGAGUUUAUCAUG [C87U C103G] | -2.13 |
| GGAUCUUCUCGAUCUAACAAAAAAGACAAAUCUGCCACAAAGCUUGAGAGCAUCUUCGGAUGCAGAGGCGGCAGCCUUCGGUGGCGUGAUAGCGCCAACGUUUUCAACUAUGACACGCAAAACGCGUGCUCCGUUGAAUGGAGUUUAUCAUG [C87U C103U] | -0.658 |
| GGAUCUUCUCGAUCUAACAAAAAAGACAAAUCUGCCACAAAGCUUGAGAGCAUCUUCGGAUGCAGAGGCGGCAGCCUUCGGUGGCGUGAUAGCGCCAACGUUCUCAACUAUGACACGCAAAACGCGUGAUCCGUUGAAUGGAGUUUAUCAUG [C87U C129A] | -2.76 |
| GGAUCUUCUCGAUCUAACAAAAAAGACAAAUCUGCCACAAAGCUUGAGAGCAUCUUCGGAUGCAGAGGCGGCAGCCUUCGGUGGCGUGAUAGCGCUAACGUUCUCAACUAUGACACGCAAAACGUGUGCUCCGUUGAAUGGAGAUUAUCAUG [C87U C96U C125U U144A] | -2.68 |
| GGAUCUUCUCGAUCUAACAAAAAAGACAAAUCUGCCACAAAGCUUGAGAGCAUCUUCGGAUGCAGAGGCGGCAGCCUUCGGUGGCGUGAUAGCGCCAACGUUCUCAACUAUGACACGUAAAACGCGUGCUCCGUUGAAUGGAGUUUUUCAUG [C87U C118U A147U] | -0.411 |
| GGAUCUUCUCGAUCUAACAAAAAAGACAAAUCUGCCACAAAGCUUGAGAGCAUCUUCGGAUGCAGAGGCGGCAGCCUUCGGUGGCGUGAUAGCGCCAACGUUCUCAACUAUGACAAGCAAAACGCGUGCUCCGUUGAAUGGAGUUUAUCAUG [C87U C116A] | 1.21 |
| GGAUCUUCUCGAUCUAACAAAAAAGACAAAUCUGCCACAAAGCUUGAGAGCAUCUUCGGAUGCAGAGGCGGCAGCCUUCGGUGGCGUGAUAGCGCCAACGUUCUCAACUAUGACACGGAAAACGCGUGCUCCGUUGAAUGGAGUUUAUCAUG [C87U C118G] | -1.33 |
| GGAUCUUCUCGAUCUAACAAAAAAGACAAAUCUGCCACAAAGCUUGAGAGCAUCUUCGGAUGCAGAGGCGGCAGCCUUCGGUGGCGUGAUAGCGCCAACGUUCUCAACUAUGACACGCAAAACGCGUGCUCCGUUGAAUGGAGUUUAUCGUU [C87U A150G G152U] | ≤ -4.2 |
| GGAUCUUCUCGAUCUAACAAAAAAGACAAAUCUGCCACAAAGCUUGAGAGCAUCUUCGGAUGCAGAGGCGGCAGCCUUCGGUGGCGUGAUAGCGCCAACGUUCUGAACUAUGACACGCAAAACGCGUGCUCCGUUGAAUGGAGUUUAUCAUG [C87U C105G] | -1.18 |
| GGAUCUUCUCGAUCUAACAAAAAAGACAAAUCUGCCACAAAGCUUGAGAGCAUCUUCGGAUGCAGAGGCGGCAGCCUUCGGUGGCGUGAUAGCGCCAACGUUCUCAAUUAUGACACGCAAAACGCGUGCUCCGUUGAAUGGAGUUUAUCAUG [C87U C108U] | -3.61 |
| GGAUCUUCUCGAUCUAACAAAAAAGACAAAUCUGCCACAAAGCUUGAGAGCAUCUUCGGAUGCAGAGGCGGCAGCCUUCGGUGGCGUGAUAGCGCCAACGUUCUCAACUAUGACACGCAAAACGCGUGCUCCGUUGAAUGGAGUUUAUCCUG [C87U A150C] | -3.7 |
| GGAUCUUCUCGAUCUAACAAAAAAGACAAAUCUGCCACAAAGCUUGAGAGCAUCUUCGGAUGCAGAGGCGGCAGCCUUCGGUGGCGUGAUAGCGCCAACGUUCUCAACUAUGACACGCAAAACGCGUGCUCCGUUGAAUGGGGUUUAUCAUG [C87U A142G] | -0.623 |
| GGAUCUUCUCGAUCUAACAAAAAAGACAAAUCUGCCACAAAGCUUGAGAGCAUCUUCGGAUGCAGAGGCGGCAGCCUUCGGUGGCGUGAUAGCGCCAACGUUCUCAACUAUGAGACGCAAAACGCGUGCUCCGUUGAAUGGAGUUUAUCAUG [C87U C114G] | -2.79 |
